From patent publication US20080160570

Target: fusion protein ubiquitin-growth hormone (hybrid polypeptide)
Sequence (chain, as listed by the source): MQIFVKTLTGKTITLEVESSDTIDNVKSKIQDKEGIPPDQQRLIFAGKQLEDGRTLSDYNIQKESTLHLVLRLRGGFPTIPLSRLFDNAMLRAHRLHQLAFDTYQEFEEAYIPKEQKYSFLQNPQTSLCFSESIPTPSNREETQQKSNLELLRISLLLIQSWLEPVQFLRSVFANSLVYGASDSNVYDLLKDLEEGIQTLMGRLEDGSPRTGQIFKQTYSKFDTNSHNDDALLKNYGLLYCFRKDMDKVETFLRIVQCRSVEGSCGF

| Protein | enzymatic cleavage of the carrier protein ubiquitin from growth hormone (37° C., 1 h); amount of fusion protein per amount of enzyme |
| --- | --- |
| UBP1ΔC (UBP1 protease mutant) (protein) GGDHLNYIWESWSEMTTNFRNNNSLSRWLPRSKFTHLDEEILKRGGFIAGLWNDGNTCFMNSWLQSLASSRELMEFLDNNWIRTYEEIEQNEHNEEGNGQESAQDEATHKKNTRKGGKWYGKHKKKLNRKSSSKEDEEKSQEPDITFSWALRDLLSALNAKYYRDKPYFKTNSLLKAMSKSPRKNILLGYDQEDAQEFFQNILAELESNWKSLNTEKLDTTPWAKSELPDDALWGQLNLGEWGTWYIPTEQIDPNSILHDKSIQNFTPFKLMTPLDGITAERIGCLQCGENGGIRYSWFSGLSLNLPNENIGSTLKLSQLLSDWSKPEIIEGWECNRCALTAAHSHLFGQLKEFEKKPEGSIPEKPINAWKDRWHQIEEWLAKPWIDDEDYKKLHTANMWRKCSKSKQILISRPPPLLSIHINRSWFDPRTYMIRKNNSKWLFKSRLNLAPWCCDINEINLDARLPMSKKEKAAQQDSSEDENIGGEYYTKLHERFEQEFEDSEEEKEYDDAEGNYASHYNHTKDISNYDPLNGEWDGWTSDDEDEYIEETDALGNTIKKRIIEHSDWENENWKDNEELQEIDNWSLDEPKINWEDQLETSSDEEDWIPAPPINYARSFSTWPATPLTYSLRSWIWHYGTHNYGHYIAFRKYRGCWWRISDETWYWWDEAEWLSTPGWFMLFYEYDFDEETGKMKDDLEAILSNNEEDDEKEQEQKGWQEPKESQEQGEGEEQEEGQEQMKFERTEDHRDISGKDWNGSHHHHHH | UBP1Δ C 1 µg-14 µg protein |
| UBP1ΔC2 (UBP1 protease mutant) (protein) GGFIAGLVNDGNTCFMNSVLQSLASSRELMEFLDNNVIRTYEEIEQNEHNEEGNGQESAQDEATHKKNTRKGGKVYGKHKKKLNRKSSSKEDEEKSQEPDITFSVALRDLLSALNAKYYRDKPYFKTNSLLKAMSKSPRKNILLGYDQEDAQEFFQNILAELESNVKSLNTEKLDTTPVAKSELPDDALVGQLNLGEVGTVYIPTEQIDPNSILHDKSIQNFTPFKLMTPLDGITAERIGCLQCGENGGIRYSVFSGLSLNLPNENIGSTLKLSQLLSDWSKPEIIEGVECNRCALTAAHSHLFGQLKEFEKKPEGSIPEKPINAVKDRVHQIEEVLAKPVIDDEDYKKLHTANMVRKCSKSKQILISRPPPLLSIHINRSVFDPRTYMIRKNNSKVLFKSRLNLAPWCCDINEINLDARLPMSKKEKAAQQDSSEDENIGGEYYTKLHERFEQEFEDSEEEKEYDDAEGNYASHYNHTKDISNYDPLNGEVDGVTSDDEDEYIEETDALGNTIKKRIIEHSDVENENVKDNEELQEIDNVSLDEPKINVEDQLETSSDEEDVIPAPPINYARSFSTVPATPLTYSLRSVIVHYGTHNYGHYIAFRKYRGCWWRISDETVYVVDEAEVLSTPGVFMLFYEYDFDEETGKMKDDLEAILSNNEEDDEKEQEQKGVQEPKESQEQGEGEEQEEGQEQMKFERTEDHRDISGKDVNGSHHHHHH | UBP1Δ C 2 1 µg-60 µg protein |
